# Results as given in paper PMC3499988 (Biochemistry, 2011).
# Like-named read-outs stand apart in the source and are kept apart here.
# Experiments:
# Assay in all cases: SPR
# HIV-1 YU-2 gp120 [1] = biological target: T1, HIV-1 YU-2 gp120 (HIV-1 (YU-2), UniProt P35961)
# HIV-1 YU-2 gp120 [2] = biological target: T1, HIV-1 YU-2 gp120; remark: listed apart in the source
# HIV-1 YU-2 gp120 [3] = biological target: T1, HIV-1 YU-2 gp120; remark: listed apart in the source
Binder,IC50 (HIV-1 YU-2 gp120 [1]) [nM],IC50 (HIV-1 YU-2 gp120 [2]) [nM],Kd (HIV-1 YU-2 gp120 [3]) [nM],koff (HIV-1 YU-2 gp120 [3]) [s⁻¹],kon (HIV-1 YU-2 gp120 [3]) [M⁻¹ s⁻¹]
"Fab m18 N30A (HCDR1) (Fab, V domains shown) VH: VQLLESGPGVVKPSETLSLTCTVSGASVANYYWTWVRQPPGKGLEWIGNVYDSGDTNYNPSLSSRLSLSMDTSKNQFSLRLSSVTAADTATYYCARYHRHFIRGPLSFDYWGRGTLVTVSS VL: LQMTQSPSFLSASVGDRVSITCRASQDIQKFLAWYQLTPGDAPKLLMYSASTLQSGVPSRFSGSGSGTEFTLTISGLQPEDFATYYCQHLKRYPYTFGQGTKLEIS",> 1000,> 1000,40.9,0.0017 ± 0.3,40000 ± 0.4
"Fab m18 R100aE (HCDR3) (Fab, V domains shown) VH: VQLLESGPGVVKPSETLSLTCTVSGASVNNYYWTWVRQPPGKGLEWIGNVYDSGDTNYNPSLSSRLSLSMDTSKNQFSLRLSSVTAADTATYYCARYHRHFIEGPLSFDYWGRGTLVTVSS VL: LQMTQSPSFLSASVGDRVSITCRASQDIQKFLAWYQLTPGDAPKLLMYSASTLQSGVPSRFSGSGSGTEFTLTISGLQPEDFATYYCQHLKRYPYTFGQGTKLEIS",> 1000,> 1000,69.2,0.0011 ± 0.7,16000 ± 0.6
"Fab m18 Y102A (HCDR3) (Fab, V domains shown) VH: VQLLESGPGVVKPSETLSLTCTVSGASVNNYYWTWVRQPPGKGLEWIGNVYDSGDTNYNPSLSSRLSLSMDTSKNQFSLRLSSVTAADTATYYCARYHRHFIRGPLSFDAWGRGTLVTVSS VL: LQMTQSPSFLSASVGDRVSITCRASQDIQKFLAWYQLTPGDAPKLLMYSASTLQSGVPSRFSGSGSGTEFTLTISGLQPEDFATYYCQHLKRYPYTFGQGTKLEIS",> 1000,> 1000,31.5,0.0012 ± 0.4,37000 ± 1.4
"Fab m18 R24A (LCDR1) (Fab, V domains shown) VH: VQLLESGPGVVKPSETLSLTCTVSGASVNNYYWTWVRQPPGKGLEWIGNVYDSGDTNYNPSLSSRLSLSMDTSKNQFSLRLSSVTAADTATYYCARYHRHFIRGPLSFDYWGRGTLVTVSS VL: LQMTQSPSFLSASVGDRVSITCAASQDIQKFLAWYQLTPGDAPKLLMYSASTLQSGVPSRFSGSGSGTEFTLTISGLQPEDFATYYCQHLKRYPYTFGQGTKLEIS",> 1000,> 1000,16.8,0.00039 ± 3.7,23000 ± 0.9
"Fab m18 N31A (HCDR1) (Fab, V domains shown) VH: VQLLESGPGVVKPSETLSLTCTVSGASVNAYYWTWVRQPPGKGLEWIGNVYDSGDTNYNPSLSSRLSLSMDTSKNQFSLRLSSVTAADTATYYCARYHRHFIRGPLSFDYWGRGTLVTVSS VL: LQMTQSPSFLSASVGDRVSITCRASQDIQKFLAWYQLTPGDAPKLLMYSASTLQSGVPSRFSGSGSGTEFTLTISGLQPEDFATYYCQHLKRYPYTFGQGTKLEIS",> 1000,> 1000,25.9,0.0013 ± 0.5,51000 ± 1
"Fab m18 Q27A (LCDR1) (Fab, V domains shown) VH: VQLLESGPGVVKPSETLSLTCTVSGASVNNYYWTWVRQPPGKGLEWIGNVYDSGDTNYNPSLSSRLSLSMDTSKNQFSLRLSSVTAADTATYYCARYHRHFIRGPLSFDYWGRGTLVTVSS VL: LQMTQSPSFLSASVGDRVSITCRASADIQKFLAWYQLTPGDAPKLLMYSASTLQSGVPSRFSGSGSGTEFTLTISGLQPEDFATYYCQHLKRYPYTFGQGTKLEIS",54.5 ± 3.5,49.6 ± 3.1,6.7,0.00049 ± 3.9,72000 ± 2.9
"Fab m18 D28A (LCDR1) (Fab, V domains shown) VH: VQLLESGPGVVKPSETLSLTCTVSGASVNNYYWTWVRQPPGKGLEWIGNVYDSGDTNYNPSLSSRLSLSMDTSKNQFSLRLSSVTAADTATYYCARYHRHFIRGPLSFDYWGRGTLVTVSS VL: LQMTQSPSFLSASVGDRVSITCRASQAIQKFLAWYQLTPGDAPKLLMYSASTLQSGVPSRFSGSGSGTEFTLTISGLQPEDFATYYCQHLKRYPYTFGQGTKLEIS",70.8 ± 1.8,65.5 ± 0.5,0.7,1.9e-05,28000 ± 3.1
"Fab m18 Q30A (LCDR1) (Fab, V domains shown) VH: VQLLESGPGVVKPSETLSLTCTVSGASVNNYYWTWVRQPPGKGLEWIGNVYDSGDTNYNPSLSSRLSLSMDTSKNQFSLRLSSVTAADTATYYCARYHRHFIRGPLSFDYWGRGTLVTVSS VL: LQMTQSPSFLSASVGDRVSITCRASQDIAKFLAWYQLTPGDAPKLLMYSASTLQSGVPSRFSGSGSGTEFTLTISGLQPEDFATYYCQHLKRYPYTFGQGTKLEIS",129 ± 5,80.3 ± 16.7,1.4,0.00012 ± 0.1,91000 ± 0.1
"Fab m18 K31R (LCDR1) (Fab, V domains shown) VH: VQLLESGPGVVKPSETLSLTCTVSGASVNNYYWTWVRQPPGKGLEWIGNVYDSGDTNYNPSLSSRLSLSMDTSKNQFSLRLSSVTAADTATYYCARYHRHFIRGPLSFDYWGRGTLVTVSS VL: LQMTQSPSFLSASVGDRVSITCRASQDIQRFLAWYQLTPGDAPKLLMYSASTLQSGVPSRFSGSGSGTEFTLTISGLQPEDFATYYCQHLKRYPYTFGQGTKLEIS",> 1000,> 1000,34.7,0.0011 ± 0.2,31000 ± 1.2
"Fab m18 T53A (LCDR2) (Fab, V domains shown) VH: VQLLESGPGVVKPSETLSLTCTVSGASVNNYYWTWVRQPPGKGLEWIGNVYDSGDTNYNPSLSSRLSLSMDTSKNQFSLRLSSVTAADTATYYCARYHRHFIRGPLSFDYWGRGTLVTVSS VL: LQMTQSPSFLSASVGDRVSITCRASQDIQKFLAWYQLTPGDAPKLLMYSASALQSGVPSRFSGSGSGTEFTLTISGLQPEDFATYYCQHLKRYPYTFGQGTKLEIS",> 500,> 500,35.2,0.00071 ± 7,20000 ± 2.1
"Fab m18 S56A (LCDR2) (Fab, V domains shown) VH: VQLLESGPGVVKPSETLSLTCTVSGASVNNYYWTWVRQPPGKGLEWIGNVYDSGDTNYNPSLSSRLSLSMDTSKNQFSLRLSSVTAADTATYYCARYHRHFIRGPLSFDYWGRGTLVTVSS VL: LQMTQSPSFLSASVGDRVSITCRASQDIQKFLAWYQLTPGDAPKLLMYSASTLQAGVPSRFSGSGSGTEFTLTISGLQPEDFATYYCQHLKRYPYTFGQGTKLEIS",> 500,> 500,25.7,0.00066 ± 1.4,28000 ± 0.7
"Fab m18 R93A (LCDR3) (Fab, V domains shown) VH: VQLLESGPGVVKPSETLSLTCTVSGASVNNYYWTWVRQPPGKGLEWIGNVYDSGDTNYNPSLSSRLSLSMDTSKNQFSLRLSSVTAADTATYYCARYHRHFIRGPLSFDYWGRGTLVTVSS VL: LQMTQSPSFLSASVGDRVSITCRASQDIQKFLAWYQLTPGDAPKLLMYSASTLQSGVPSRFSGSGSGTEFTLTISGLQPEDFATYYCQHLKAYPYTFGQGTKLEIS",78.7 ± 3.2,49.5 ± 20.5,2,8e-05,39000 ± 0.2
"Fab m18 P95A (LCDR3) (Fab, V domains shown) VH: VQLLESGPGVVKPSETLSLTCTVSGASVNNYYWTWVRQPPGKGLEWIGNVYDSGDTNYNPSLSSRLSLSMDTSKNQFSLRLSSVTAADTATYYCARYHRHFIRGPLSFDYWGRGTLVTVSS VL: LQMTQSPSFLSASVGDRVSITCRASQDIQKFLAWYQLTPGDAPKLLMYSASTLQSGVPSRFSGSGSGTEFTLTISGLQPEDFATYYCQHLKRYAYTFGQGTKLEIS",> 1000,> 1000,35.5,0.0019 ± 0.3,53000 ± 1.6
"Fab m18 Y32A (HCDR1) (Fab, V domains shown) VH: VQLLESGPGVVKPSETLSLTCTVSGASVNNAYWTWVRQPPGKGLEWIGNVYDSGDTNYNPSLSSRLSLSMDTSKNQFSLRLSSVTAADTATYYCARYHRHFIRGPLSFDYWGRGTLVTVSS VL: LQMTQSPSFLSASVGDRVSITCRASQDIQKFLAWYQLTPGDAPKLLMYSASTLQSGVPSRFSGSGSGTEFTLTISGLQPEDFATYYCQHLKRYPYTFGQGTKLEIS",432 ± 31.5,247 ± 15.8,0.4,6.1e-05,120000 ± 0.2
"Fab m18 Y33A (HCDR1) (Fab, V domains shown) VH: VQLLESGPGVVKPSETLSLTCTVSGASVNNYAWTWVRQPPGKGLEWIGNVYDSGDTNYNPSLSSRLSLSMDTSKNQFSLRLSSVTAADTATYYCARYHRHFIRGPLSFDYWGRGTLVTVSS VL: LQMTQSPSFLSASVGDRVSITCRASQDIQKFLAWYQLTPGDAPKLLMYSASTLQSGVPSRFSGSGSGTEFTLTISGLQPEDFATYYCQHLKRYPYTFGQGTKLEIS",150 ± 3.5,135 ± 7.1,30.7,0.0038 ± 0.2,120000 ± 0.5
"Fab m18 Y33F (HCDR1) (Fab, V domains shown) VH: VQLLESGPGVVKPSETLSLTCTVSGASVNNYFWTWVRQPPGKGLEWIGNVYDSGDTNYNPSLSSRLSLSMDTSKNQFSLRLSSVTAADTATYYCARYHRHFIRGPLSFDYWGRGTLVTVSS VL: LQMTQSPSFLSASVGDRVSITCRASQDIQKFLAWYQLTPGDAPKLLMYSASTLQSGVPSRFSGSGSGTEFTLTISGLQPEDFATYYCQHLKRYPYTFGQGTKLEIS",> 1000,> 1000,56.3,0.0024 ± 0.8,42000 ± 1.9
"Fab m18 D53A (HCDR2) (Fab, V domains shown) VH: VQLLESGPGVVKPSETLSLTCTVSGASVNNYYWTWVRQPPGKGLEWIGNVYASGDTNYNPSLSSRLSLSMDTSKNQFSLRLSSVTAADTATYYCARYHRHFIRGPLSFDYWGRGTLVTVSS VL: LQMTQSPSFLSASVGDRVSITCRASQDIQKFLAWYQLTPGDAPKLLMYSASTLQSGVPSRFSGSGSGTEFTLTISGLQPEDFATYYCQHLKRYPYTFGQGTKLEIS",> 500,> 500,7,0.00012 ± 1.1,16000 ± 1.3
